From the nanobody polyreactivity screen of Harvey et al. (2022)

Experiment: yeast display, Sf9 membrane polyspecificity reagent, FACS + sequencing; frameworks hold sequencing errors
In short: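 A synthetic nanobody library was expressed on Saccharomyces cerevisiae BJ5465 by galactose induction for 36–48 hours. The library was stained for 1 hour at 4 °C with 10% biotinylated, detergent-solubilized Sf9 membrane reagent and enriched with streptavidin microbeads before FACS. Low and high (top ~1%) gates were set on anti-HA fluorescence for expression and streptavidin fluorescence for reagent binding, and each polyreactivity label reflects the gate of origin.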

Sequence	polyreactivity (PSR sort gate)
QVQLVESGGGLVQAGGSLRLSCAASGITFAYYVMGWYRPAPGKERELVAVISSRGSRTFYADSVKGRFTISRDNAKNTVYLQMNSLKPEDTAVYYCAADSTYSYYWGQGTQVTVSS	high polyreactivity
QVQLVESGGGLVQAGGSLRLSCAASGITFDGYAMGWYRQAPGKEREFVAAISRSGTSTYYADSVKGRFTISRDNAKNTVYLQMNSLKPEDSAVYYCNKKWPRLYYYWGQGTQVTVSS	high polyreactivity
QVQLVESGGGLVQAGGSLRLSCAASGITFDHYAMGWYRPAPGKERELVATIRGSGTSTYYADSVKGRFTISRDNAKNTVYLQMHSLKPEDTAVYYCAARGRYRQFNYWGQGTQVTVSS	high polyreactivity
QVQLVESGGGLVQAGGSLRLSCAASGITFDKNTMGWYRQAPGKERELVAAISARGGSTYYADSVKGRFTISRDNAKYTVYLQMNSLKPEDTAVYYCAATRSYSYRTVYRRKYNYWGQGTQVTVSS	high polyreactivity
QVQLVESGGGLVQAGGSLRLSCAASGITFDKYALGWYRQAPGNERELVAAISGSDGSTYYADSVKGRFTISRDNAKNTVYLQNNSLKPEDTAVYYCAAESEYAGTYEYDYWGQGTQVTVSS	low polyreactivity
QVQLVESGGGLVQAGGSLRLSCAASGITFDKYAMGWYRQAPGKERELVARITSGGGTNYADSVKGRFTISRDNAKNTVYLQMNSLKPEDTAVYSCNKRTSPKRFDYWGQGTQVTVSS	high polyreactivity
QVQLVESGGGLVQAGGSLRLSCAASGITFDLYAMGWFRQAPGKERELVAAISISSTSTYYADSVKGRFTISRDNAKNTVYLQMNSLKPEDTAVYYCNAVPSSKTFWFDYWGQGTQVTVSS	low polyreactivity
QVQLVESGGGLVQAGGSLRLSCAASGITFDNYAMGWYRQAPGKEWELVAAISSDDNTTYADSVKGRFTISRDNAKNTVYLQMNSLKPEDSAVYYCAADSRIYGYWEYDYCGQGTQVTVSS	low polyreactivity
QVQLVESGGGLVQAGGSLRLSCAASGITFDNYAMGWYRQAPGKEWELVAAISSDDNTTYADSVKGRFTISRDNAKNTVYLQMNSLKPEDTAVYYCAADSRIYGYWEYDYWGQGTQVTVST	low polyreactivity
QVQLVESGGGLVQAGGSLRLSCAASGITFDQNAMGWSRQEPGKESEFVAAISVSGARTYYADSVKGRFTISRDNAKNTVYLQMNSLKPEDTAVYYCAAYGGTRYYYSYYYWGQGTQVTVSS	high polyreactivity
QVQLVESGGGLVQAGGSLRLSCAASGITFDSYALGSYRQAPGKERELVAAISGSGGSTYYADSVKGRFTISRDNAKNTVYLQMNSLKPEDTAVYYCAADWYPTGFYYWGQGTQVTVSS	low polyreactivity
QVQLVESGGGLVQAGGSLRLSCAASGITFDSYAMGWYRQSPGKEREWVDAISYSGGSTYYADSVKGRFTISRDNAKNTVNLQMNRLKPEDTAVYYFAAASDEDYDYWGQGTQVTVSS	low polyreactivity
QVQLVESGGGLVQAGGSLRLSCAASGITFDTYVMGWYRQAPGKERELVAAISNSDGSTYYADSVKGRFTISRDNAKNTVYLQMNSLKPEDTAVYYCNAQSYYYWHLRYDYWGQGTQVTVSS	high polyreactivity
QVQLVESGGGLVQAGGSLRLSCAASGITFDYYAMGWYRQAPGKERELVAAISRSGGSTYYADSVKGRFTISRDKAKNTVYLQMNSLKPEDTAVYYCAAYALTIRAYYYWGQGTQVTVSS	high polyreactivity
QVQLVESGGGLVQAGGSLRLSCAASGITFDYYAMGWYRQAPGKERELVAAITSRGGSTYYADSVKGRFTISRDNAKNTVYLQMNSLKPEDTAVYYCAAVRSGYYNYWGQGTQVTVSS	high polyreactivity
QVQLVESGGGLVQAGGSLRLSCAASGITFDYYAMGWYRQAPRKERELVPGISWGGGSTYYADSVKGRFTISRDNAKNTVYLQMNSLKPEDTAVYYCAADIVSSPSSYVPPGDYWGQGTQVTVSS	low polyreactivity
QVQLVESGGGLVQAGGSLRLSCAASGITFDYYGMGWYIQAPGKERELVASITSGGSTNYADSVKGRFTISRDNPKNTVYLQMNSLKPEDTAVYYCNAEFWEVSPDPRDYDYWGQGTQVTVSS	low polyreactivity
